{"source": "patent US20250134683A1", "about": "“MICRO-NANO MEDICAL STENT FOR DIRECTIONAL, QUANTITATIVE AND TIMED RELEASE OF DRUG AND PREPARATION METHOD THEREOF” (GUANGDONG UNIVERSITY OF TECHNOLOGY, priority 2023, published 2025)", "test": "sequential release of drugs from core-shell nano-disordered electrospun fiber structure", "type": "physicochemical", "details": "composite electrospun layer of Example 1; roxithromycin in shell layer fiber, human epidermal growth factor in core layer fiber", "source_text": "Moreover, the transmission electron microscopic image of the core-shell nano-disordered electrospun fiber structure in the composite electrospun layer prepared in Example 1 is shown in FIG. 3. […] The coaxial electrospinning realizes the sequential and timed release of the two drugs in the same electrospun layer. Further, the electrospun layer can be prepared by triaxial electrospinning or multiaxial electrospinning process, which has a core-shell structure of three core layers or multi-core layers, thereby achieving the sequential and timed release of three or more drugs in the same electrospun layer.", "data": [{"molecule": "human epidermal growth factor: growth factor gel loaded in PVA core layer fiber (protein, UniProt P01133 23-1207, looked up, Pro-epidermal growth factor, growth factor gel loaded in PVA core layer fiber) Pro-epidermal growth factor: PQHWSCPEGTLAGNGNSTCVGPAPFLIFSHGNSIFRIDTEGTNYEQLVVDAGVSVIMDFHYNEKRIYWVDLERQLLQRVFLNGSRQERVCNIEKNVSGMAINWINEEVIWSNQQEGIITVTDMKGNNSHILLSALKYPANVAVDPVERFIFWSSEVAGSLYRADLDGVGVKALLETSEKITAVSLDVLDKRLFWIQYNREGSNSLICSCDYDGGSVHISKHPTQHNLFAMSLFGDRIFYSTWKMKTIWIANKHTGKDMVRINLHSSFVPLGELKVVHPLAQPKAEDDTWEPEQKLCKLRKGNCSSTVCGQDLQSHLCMCAEGYALSRDRKYCEDVNECAFWNHGCTLGCKNTPGSYYCTCPVGFVLLPDGKRCHQLVSCPRNVSECSHDCVLTSEGPLCFCPEGSVLERDGKTCSGCSSPDNGGCSQLCVPLSPVSWECDCFPGYDLQLDEKSCAASGPQPFLLFANSQDIRHMHFDGTDYGTLLSQQMGMVYALDHDPVENKIYFAHTALKWIERANMDGSQRERLIEEGVDVPEGLAVDWIGRRFYWTDRGKSLIGRSDLNGKRSKIITKENISQPRGIAVHPMAKRLFWTDTGINPRIESSSLQGLGRLVIASSDLIWPSGITIDFLTDKLYWCDAKQSVIEMANLDGSKRRRLTQNDVGHPFAVAVFEDYVWFSDWAMPSVMRVNKRTGKDRVRLQGSMLKPSSLVVVHPLAKPGADPCLYQNGGCEHICKKRLGTAWCSCREGFMKASDGKTCLALDGHQLLAGGEVDLKNQVTPLDILSKTRVSEDNITESQHMLVAEIMVSDQDDCAPVGCSMYARCISEGEDATCQCLKGFAGDGKLCSDIDECEMGVPVCPPASSKCINTEGGYVCRCSEGYQGDGIHCLDIDECQLGEHSCGENASCTNTEGGYTCMCAGRLSEPGLICPDSTPPPHLREDDHHYSVRNSDSECPLSHDGYCLHDGVCMYIEALDKYACNCVVGYIGERCQYRDLKWWELRHAGHGQQQKVIVVAVCVVVLVMLLLLSLWGAHYYRTQKLLSKNPKNPYEESSRDVRSRRPADTEDGMSSCPQPWFVVIKEHQDLKNGGQPVAGEDGQAADGSMQPTSWRQEPQLCGMGTEQGCWIPVSSDKGSCPQVMERSFHMPSYGTQTLEGGVEKPHSLLSANPLWQQRALDPPHQMELTQ", "values": [{"measurement": "order of drug release from core-shell fiber", "result": "subsequently released"}]}]}
